Values quoted from earlier work in publication PMC6151437, “Antibacterial Synthetic Peptides Derived from Bovine Lactoferricin Exhibit Cytotoxic Effect against MDA-MB-468 and MDA-MB-231 Breast Cancer Cell Lines” (Molecules : A Journal of Synthetic Chemistry and Natural …, 2017).

Tested on: HT-29 cells
Parameters: method as in PMID 24140317
Details: maximum effects at 12 h of treatment

B1: BLF: Bovine lactoferrin, a milk protein (protein, UniProt P24627 20-708, looked up)
Lactotransferrin: APRKNVRWCTISQPEWFKCRRWQWRMKKLGAPSITCVRRAFALECIRAIAEKKADAVTLDGGMVFEAGRDPYKLRPVAAEIYGTKESPQTHYYAVAVVKKGSNFQLDQLQGRKSCHTGLGRSAGWIIPMGILRPYLSWTESLEPLQGAVAKFFSASCVPCIDRQAYPNLCQLCKGEGENQCACSSREPYFGYSGAFKCLQDGAGDVAFVKETTVFENLPEKADRDQYELLCLNNSRAPVDAFKECHLAQVPSHAVVARSVDGKEDLIWKLLSKAQEKFGKNKSRSFQLFGSPPGQRDLLFKDSALGFLRIPSKVDSALYLGSRYLTTLKNLRETAEEVKARYTRVVWCAVGPEEQKKCQQWSQQSGQNVTCATASTTDDCIVLVLKGEADALNLDGGYIYTAGKCGLVPVLAENRKSSKHSSLDCVLRPTEGYLAVAVVKKANEGLTWNSLKDKKSCHTAVDRTAGWNIPMGLIVNQTGSCAFDEFFSQSCAPGADPKSRLCALCAGDDQGLDKCVPNSKEKYYGYTGAFRCLAEDVGDVAFVKNDTVWENTNGESTADWAKNLNREDFRLLCLDGTRKPVTEAQSCHLAVAPNHAVVSRSDRAAHVKQVLLHQQALFGKNGKNCPDKFCLFKSETKNLLFNDNTECLAKLGGRPTYEEYLGTEYVTAIANLKKCSTSPLLEACAFLTR
- optimal concentration for cytotoxic activity and apoptosis: 800 µg/mL
